Assay results reported in PMC5619814.

Assays:
[1] = target: soluble rabbit neonatal Fc receptor (rbFcRn), heterodimer of truncated rbFcRn α-chain and rabbit β2-microglobulin (rabbit)
[2] = target: soluble rabbit neonatal Fc receptor (rbFcRn), heterodimer of truncated rbFcRn α-chain and rabbit β2-microglobulin (rabbit); experiment: SPR; ProteOn XPR36, GLC chip; rbFcRn (about 1200 RU) or hFcRn (about 1600 RU) immobilised by amine coupling; IgG injected at 8.34-133 nM, 100 μl/min, PBS-T pH 6.0, 25°C; heterogeneous ligand model (two classes of non-interacting sites)
[3] = target: soluble human neonatal Fc receptor (hFcRn) (human) (UniProt P55899); experiment: as above
[4] = target: human IgG1 (Omalizumab) (human); experiment: SPR; ProteOn XPR36, GLC chip; rbIgG (about 1900 RU) or hIgG1 (about 2100 RU) immobilised by amine coupling; rbFcRn or hFcRn injected at 37.5-600 nM, 100 μl/min, PBS-T pH 6.0, 25°C; Langmuir 1:1 model

Q: Which FcRn-mediated recycling assay in rabbit peritoneal macrophages: relative fluorescence intensity of Alexa 488-hIgG1 left in the cells after 20 min pulse at pH 6.0 and 30 min chase at pH 7.4 [1] does the source give for human IgG1 (Omalizumab) (antibody) here?
A: 60%

Q: What about the KD1 (high affinity class of sites, heterogeneous ligand model) [2] of the same substance?
A: 12.9 nM

Q: And the KD2 (low affinity class of sites, heterogeneous ligand model) [2]?
A: 71.9 nM

Q: What about the KD1 (high affinity class of sites, heterogeneous ligand model) [3] of the same substance?
A: 9.99 nM

Q: What about the KD2 (low affinity class of sites, heterogeneous ligand model) [3] of the same substance?
A: 57.2 nM

Q: Which results are given for human IgG2 (Abcam) (antibody)?
A: KD1 (high affinity class of sites, heterogeneous ligand model) [2]: 7.46 nM; KD2 (low affinity class of sites, heterogeneous ligand model) [2]: 106 nM; KD1 (high affinity class of sites, heterogeneous ligand model) [3]: 5.43 nM; KD2 (low affinity class of sites, heterogeneous ligand model) [3]: 34.7 nM

Q: With human IgG3 (Abcam) (antibody) as the substance, how does the KD1 (high affinity class of sites, heterogeneous ligand model) [2] read?
A: 2.57 nM

Q: What about the KD2 (low affinity class of sites, heterogeneous ligand model) [2] of the same substance?
A: 59.2 nM

Q: And the KD1 (high affinity class of sites, heterogeneous ligand model) [3]?
A: 6.06 nM

Q: And the KD2 (low affinity class of sites, heterogeneous ligand model) [3]?
A: 17.4 nM

Q: Which results are given for human IgG4 (Abcam) (antibody)?
A: KD1 (high affinity class of sites, heterogeneous ligand model) [2]: 3.86 nM; KD2 (low affinity class of sites, heterogeneous ligand model) [2]: 53.5 nM; KD1 (high affinity class of sites, heterogeneous ligand model) [3]: 2.36 nM; KD2 (low affinity class of sites, heterogeneous ligand model) [3]: 20.2 nM

Q: Which results are given for “soluble human neonatal Fc receptor (hFcRn) (from UniProt P55899 24-297; P61769 21-119) (complex)”?
A: Kd [4]: 4.3 nM; koff [4]: 0.000592 s⁻¹; kon [4]: 138000 M⁻¹ s⁻¹

Q: What does the source list for “soluble rabbit neonatal Fc receptor (rbFcRn), heterodimer of truncated rbFcRn α-chain and rabbit β2-microglobulin (complex)”?
A: Kd [4]: 1.19 nM; koff [4]: 0.00039 s⁻¹; kon [4]: 327000 M⁻¹ s⁻¹
